Assay results reported in patent publication US20260209386A1 (MYTHIC THERAPEUTICS, published 2026).

T1: Human PTK7 Protein, His Tag (Acro Biosystems) (human, UniProt Q13308 31-704)
T1 construct: Bought His-tagged protein; also called CCK4; not shown: His tag
T1 sequence: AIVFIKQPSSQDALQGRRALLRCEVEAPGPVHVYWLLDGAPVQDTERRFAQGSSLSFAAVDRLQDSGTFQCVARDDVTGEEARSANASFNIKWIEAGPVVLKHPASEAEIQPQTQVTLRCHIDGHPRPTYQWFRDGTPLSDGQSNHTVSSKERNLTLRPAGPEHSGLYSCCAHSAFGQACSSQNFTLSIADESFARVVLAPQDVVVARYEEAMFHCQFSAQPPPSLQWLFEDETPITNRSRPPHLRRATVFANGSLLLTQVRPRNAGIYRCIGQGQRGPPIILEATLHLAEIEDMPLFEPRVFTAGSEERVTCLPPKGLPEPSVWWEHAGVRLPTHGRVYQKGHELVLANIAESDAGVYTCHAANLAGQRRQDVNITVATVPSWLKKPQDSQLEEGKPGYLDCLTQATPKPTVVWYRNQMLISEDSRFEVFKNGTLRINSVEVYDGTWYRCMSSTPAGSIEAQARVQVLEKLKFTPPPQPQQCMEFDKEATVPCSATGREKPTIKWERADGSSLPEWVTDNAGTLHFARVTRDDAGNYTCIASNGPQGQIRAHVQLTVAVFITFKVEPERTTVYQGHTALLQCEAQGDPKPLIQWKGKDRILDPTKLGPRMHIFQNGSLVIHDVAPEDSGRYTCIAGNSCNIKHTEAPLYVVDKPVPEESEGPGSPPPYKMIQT


What follows are binders tested against T1, Human PTK7 Protein, His Tag (Acro …) (assay: BLI (Octet), antibody on anti-human Fc sensor, 50 nM PTK7; grade 2 = substantially similar binding relative to parent).

Row | Binder | binding result
1 | MYT11032 (antibody, V domains shown, MYT9361 HC variant) VH: EVQLVESGGGLVQPGGSLRLSCTASGLSLSHYWMSWVRQAPGKGLEWVGVISAGGNTYYANWAKGRFTISRDTSKNTVYLQMNSLRAEDTAVYFCARGDDGYTNAAYVSNLWGQGTLVTVSS VL: EIVMTQSPSTLSASVGDRVIITCQASQSISSWLSWYQQKPGKAPKLLIYKASTLASGVPSRFSGSGSGAEFTLTISSLQPDDFATYYCQSYFDSTTIAFGQGTKLTVL | binds
2 | MYT11034 (antibody, V domains shown, MYT9361 HC variant) VH: EVQLVESGGGLVQPGGSLRLSCTASGLSLSSYHMSWVRQAPGKGLEWVGVISAGGNTYYANWAKGRFTISRDTSKNTVYLQMNSLRAEDTAVYFCARGDDGYTNAAYVSNLWGQGTLVTVSS VL: EIVMTQSPSTLSASVGDRVIITCQASQSISSWLSWYQQKPGKAPKLLIYKASTLASGVPSRFSGSGSGAEFTLTISSLQPDDFATYYCQSYFDSTTIAFGQGTKLTVL | binds
3 | MYT11035 (antibody, V domains shown, MYT9361 HC variant) VH: EVQLVESGGGLVQPGGSLRLSCTASGLSLSSYWHSWVRQAPGKGLEWVGVISAGGNTYYANWAKGRFTISRDTSKNTVYLQMNSLRAEDTAVYFCARGDDGYTNAAYVSNLWGQGTLVTVSS VL: EIVMTQSPSTLSASVGDRVIITCQASQSISSWLSWYQQKPGKAPKLLIYKASTLASGVPSRFSGSGSGAEFTLTISSLQPDDFATYYCQSYFDSTTIAFGQGTKLTVL | binds
4 | MYT11036 (antibody, V domains shown, MYT9361 HC variant) VH: EVQLVESGGGLVQPGGSLRLSCTASGLSLSSYWMHWVRQAPGKGLEWVGVISAGGNTYYANWAKGRFTISRDTSKNTVYLQMNSLRAEDTAVYFCARGDDGYTNAAYVSNLWGQGTLVTVSS VL: EIVMTQSPSTLSASVGDRVIITCQASQSISSWLSWYQQKPGKAPKLLIYKASTLASGVPSRFSGSGSGAEFTLTISSLQPDDFATYYCQSYFDSTTIAFGQGTKLTVL | binds
5 | MYT11037 (antibody, V domains shown, MYT9361 HC variant) VH: EVQLVESGGGLVQPGGSLRLSCTASGLSLSSYWMSWVRQAPGKGLEWVGHISAGGNTYYANWAKGRFTISRDTSKNTVYLQMNSLRAEDTAVYFCARGDDGYTNAAYVSNLWGQGTLVTVSS VL: EIVMTQSPSTLSASVGDRVIITCQASQSISSWLSWYQQKPGKAPKLLIYKASTLASGVPSRFSGSGSGAEFTLTISSLQPDDFATYYCQSYFDSTTIAFGQGTKLTVL | binds
6 | MYT11038 (antibody, V domains shown, MYT9361 HC variant) VH: EVQLVESGGGLVQPGGSLRLSCTASGLSLSSYWMSWVRQAPGKGLEWVGVHSAGGNTYYANWAKGRFTISRDTSKNTVYLQMNSLRAEDTAVYFCARGDDGYTNAAYVSNLWGQGTLVTVSS VL: EIVMTQSPSTLSASVGDRVIITCQASQSISSWLSWYQQKPGKAPKLLIYKASTLASGVPSRFSGSGSGAEFTLTISSLQPDDFATYYCQSYFDSTTIAFGQGTKLTVL | binds
7 | MYT11039 (antibody, V domains shown, MYT9361 HC variant) VH: EVQLVESGGGLVQPGGSLRLSCTASGLSLSSYWMSWVRQAPGKGLEWVGVIHAGGNTYYANWAKGRFTISRDTSKNTVYLQMNSLRAEDTAVYFCARGDDGYTNAAYVSNLWGQGTLVTVSS VL: EIVMTQSPSTLSASVGDRVIITCQASQSISSWLSWYQQKPGKAPKLLIYKASTLASGVPSRFSGSGSGAEFTLTISSLQPDDFATYYCQSYFDSTTIAFGQGTKLTVL | binds
8 | MYT11040 (antibody, V domains shown, MYT9361 HC variant) VH: EVQLVESGGGLVQPGGSLRLSCTASGLSLSSYWMSWVRQAPGKGLEWVGVISHGGNTYYANWAKGRFTISRDTSKNTVYLQMNSLRAEDTAVYFCARGDDGYTNAAYVSNLWGQGTLVTVSS VL: EIVMTQSPSTLSASVGDRVIITCQASQSISSWLSWYQQKPGKAPKLLIYKASTLASGVPSRFSGSGSGAEFTLTISSLQPDDFATYYCQSYFDSTTIAFGQGTKLTVL | binds
9 | MYT11041 (antibody, V domains shown, MYT9361 HC variant) VH: EVQLVESGGGLVQPGGSLRLSCTASGLSLSSYWMSWVRQAPGKGLEWVGVISAHGNTYYANWAKGRFTISRDTSKNTVYLQMNSLRAEDTAVYFCARGDDGYTNAAYVSNLWGQGTLVTVSS VL: EIVMTQSPSTLSASVGDRVIITCQASQSISSWLSWYQQKPGKAPKLLIYKASTLASGVPSRFSGSGSGAEFTLTISSLQPDDFATYYCQSYFDSTTIAFGQGTKLTVL | binds
10 | MYT11042 (antibody, V domains shown, MYT9361 HC variant) VH: EVQLVESGGGLVQPGGSLRLSCTASGLSLSSYWMSWVRQAPGKGLEWVGVISAGHNTYYANWAKGRFTISRDTSKNTVYLQMNSLRAEDTAVYFCARGDDGYTNAAYVSNLWGQGTLVTVSS VL: EIVMTQSPSTLSASVGDRVIITCQASQSISSWLSWYQQKPGKAPKLLIYKASTLASGVPSRFSGSGSGAEFTLTISSLQPDDFATYYCQSYFDSTTIAFGQGTKLTVL | binds
11 | MYT11043 (antibody, V domains shown, MYT9361 HC variant) VH: EVQLVESGGGLVQPGGSLRLSCTASGLSLSSYWMSWVRQAPGKGLEWVGVISAGGHTYYANWAKGRFTISRDTSKNTVYLQMNSLRAEDTAVYFCARGDDGYTNAAYVSNLWGQGTLVTVSS VL: EIVMTQSPSTLSASVGDRVIITCQASQSISSWLSWYQQKPGKAPKLLIYKASTLASGVPSRFSGSGSGAEFTLTISSLQPDDFATYYCQSYFDSTTIAFGQGTKLTVL | binds
12 | MYT11044 (antibody, V domains shown, MYT9361 HC variant) VH: EVQLVESGGGLVQPGGSLRLSCTASGLSLSSYWMSWVRQAPGKGLEWVGVISAGGNHYYANWAKGRFTISRDTSKNTVYLQMNSLRAEDTAVYFCARGDDGYTNAAYVSNLWGQGTLVTVSS VL: EIVMTQSPSTLSASVGDRVIITCQASQSISSWLSWYQQKPGKAPKLLIYKASTLASGVPSRFSGSGSGAEFTLTISSLQPDDFATYYCQSYFDSTTIAFGQGTKLTVL | binds
13 | MYT11045 (antibody, V domains shown, MYT9361 HC variant) VH: EVQLVESGGGLVQPGGSLRLSCTASGLSLSSYWMSWVRQAPGKGLEWVGVISAGGNTHYANWAKGRFTISRDTSKNTVYLQMNSLRAEDTAVYFCARGDDGYTNAAYVSNLWGQGTLVTVSS VL: EIVMTQSPSTLSASVGDRVIITCQASQSISSWLSWYQQKPGKAPKLLIYKASTLASGVPSRFSGSGSGAEFTLTISSLQPDDFATYYCQSYFDSTTIAFGQGTKLTVL | binds
14 | MYT11046 (antibody, V domains shown, MYT9361 HC variant) VH: EVQLVESGGGLVQPGGSLRLSCTASGLSLSSYWMSWVRQAPGKGLEWVGVISAGGNTYHANWAKGRFTISRDTSKNTVYLQMNSLRAEDTAVYFCARGDDGYTNAAYVSNLWGQGTLVTVSS VL: EIVMTQSPSTLSASVGDRVIITCQASQSISSWLSWYQQKPGKAPKLLIYKASTLASGVPSRFSGSGSGAEFTLTISSLQPDDFATYYCQSYFDSTTIAFGQGTKLTVL | binds
15 | MYT11047 (antibody, V domains shown, MYT9361 HC variant) VH: EVQLVESGGGLVQPGGSLRLSCTASGLSLSSYWMSWVRQAPGKGLEWVGVISAGGNTYYHNWAKGRFTISRDTSKNTVYLQMNSLRAEDTAVYFCARGDDGYTNAAYVSNLWGQGTLVTVSS VL: EIVMTQSPSTLSASVGDRVIITCQASQSISSWLSWYQQKPGKAPKLLIYKASTLASGVPSRFSGSGSGAEFTLTISSLQPDDFATYYCQSYFDSTTIAFGQGTKLTVL | binds
16 | MYT11048 (antibody, V domains shown, MYT9361 HC variant) VH: EVQLVESGGGLVQPGGSLRLSCTASGLSLSSYWMSWVRQAPGKGLEWVGVISAGGNTYYAHWAKGRFTISRDTSKNTVYLQMNSLRAEDTAVYFCARGDDGYTNAAYVSNLWGQGTLVTVSS VL: EIVMTQSPSTLSASVGDRVIITCQASQSISSWLSWYQQKPGKAPKLLIYKASTLASGVPSRFSGSGSGAEFTLTISSLQPDDFATYYCQSYFDSTTIAFGQGTKLTVL | binds
17 | MYT11049 (antibody, V domains shown, MYT9361 HC variant) VH: EVQLVESGGGLVQPGGSLRLSCTASGLSLSSYWMSWVRQAPGKGLEWVGVISAGGNTYYANHAKGRFTISRDTSKNTVYLQMNSLRAEDTAVYFCARGDDGYTNAAYVSNLWGQGTLVTVSS VL: EIVMTQSPSTLSASVGDRVIITCQASQSISSWLSWYQQKPGKAPKLLIYKASTLASGVPSRFSGSGSGAEFTLTISSLQPDDFATYYCQSYFDSTTIAFGQGTKLTVL | binds
18 | MYT11050 (antibody, V domains shown, MYT9361 HC variant) VH: EVQLVESGGGLVQPGGSLRLSCTASGLSLSSYWMSWVRQAPGKGLEWVGVISAGGNTYYANWHKGRFTISRDTSKNTVYLQMNSLRAEDTAVYFCARGDDGYTNAAYVSNLWGQGTLVTVSS VL: EIVMTQSPSTLSASVGDRVIITCQASQSISSWLSWYQQKPGKAPKLLIYKASTLASGVPSRFSGSGSGAEFTLTISSLQPDDFATYYCQSYFDSTTIAFGQGTKLTVL | binds
19 | MYT11051 (antibody, V domains shown, MYT9361 HC variant) VH: EVQLVESGGGLVQPGGSLRLSCTASGLSLSSYWMSWVRQAPGKGLEWVGVISAGGNTYYANWAHGRFTISRDTSKNTVYLQMNSLRAEDTAVYFCARGDDGYTNAAYVSNLWGQGTLVTVSS VL: EIVMTQSPSTLSASVGDRVIITCQASQSISSWLSWYQQKPGKAPKLLIYKASTLASGVPSRFSGSGSGAEFTLTISSLQPDDFATYYCQSYFDSTTIAFGQGTKLTVL | binds
